One assay deals with APC PRM (Homo sapiens) (UniProt P25054). The conditions noted are these: cited from earlier work.
Assay [1] has as its target T1, ASAP1-SH3 (residue 1087–1147) (mouse, UniProt Q9QWY8 1087-1147).
T1 construct: ASAP1, mouse, SH3 domain, residue 1087-1147; The Trx-His6 tag is followed by a 3C protease cleavage site; The limits are stated for the crystallisation; also called SH3 domain of ASAP1; source: E. coli BL21(DE3), purified (Ni-NTA, Superdex-200 gel filtration)
T1 sequence (looked up): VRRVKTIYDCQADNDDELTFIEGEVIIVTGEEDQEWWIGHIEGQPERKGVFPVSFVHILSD
The assay is described as follows: ITC; PEAQ-ITC; 400 μM in the syringe, 40 μM in the cell; 50 mM Tris pH 7.5, 100 mM NaCl, 1 mM DTT, 1 mM EDTA; one-site binding model. The conditions noted are these: both partners purified.

The target in assay [2] is T2, GRAF2-SH3 (residue 728–786) (human, UniProt A1A4S6 728-786).
T2 construct: GRAF2 (GTPase Regulator associated with focal adhesion kinase 2), human, SH3 domain, residue 728-786; also called SH3^AGS of GRAF2; source: E. coli BL21(DE3), purified (Ni-NTA, Superdex-200 gel filtration)
T2 sequence (looked up): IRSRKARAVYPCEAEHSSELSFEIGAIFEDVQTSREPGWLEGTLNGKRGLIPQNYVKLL
The assay is described as above. The conditions noted are these: both partners purified.

Assay [3] has as its target T3, SKAP1-SH3 (residue 294–355) (human, UniProt Q86WV1 294-355).
T3 construct: SKAP1 (Src kinase associated phosphoprotein 1), human, SH3 domain, residue 294-355; also called SH3^AGS of SKAP1; source: E. coli BL21(DE3), purified (Ni-NTA, Superdex-200 gel filtration)
T3 sequence (looked up): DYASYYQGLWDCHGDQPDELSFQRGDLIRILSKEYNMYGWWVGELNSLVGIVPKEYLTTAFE
The assay is described as above. The conditions noted are these: both partners purified.

The target in assay [4] is T4, ASAP1-SH3 (residue 1087–1147), Q9QWY8.
T4 chain: T1 sequence (looked up)
The assay is described as follows: ITC. The conditions noted are these: chain shown with the change.

Assay [5] addresses T5, ASAP1-SH3 (residue 1087–1147) (mouse, UniProt Q9QWY8 1087-1147).
T5 chain: T1 sequence (looked up)
The assay is described as follows: ITC.

The next assay concerns the target T6, FYB1 (Homo sapiens (Human), UniProt O15117).
T6 chain: TLGPPPPKPNRPPNV
The assay is described as follows: ITC, Trx fusions.

For the next assay, the target named is T7, FAK1 (Homo sapiens (Human), UniProt Q05397).
T7 chain: EAPPKPSRPGYPSPR
The assay is described as follows: ITC, Trx fusions.

A further assay has as its target T8, MICAL1 (Homo sapiens (Human), UniProt Q8TDZ2).
T8 chain: EPPPKPPRSCSALAR
The assay is described as follows: ITC, Trx fusions.

The next assay addresses T9, MICAL1-PRM, Q8TDZ2.
T9 chain: EPPPKPPRSCSALAR
The assay is described as follows: ITC. As to conditions: chain shown with the change.

Assay [6] deals with T10, SKAP1-SH3 (residue 294–355) (human, UniProt Q86WV1 294-355).
T10 chain: T3 sequence (looked up)
The assay is described as follows: ITC.

Assay [7] addresses T5, ASAP1-SH3 (residue 1087–1147). The assay is described as follows: ITC.
Assay [8] has as its target T11, GRAF2-SH3 (residue 728–786) (human, UniProt A1A4S6 728-786).
T11 chain: T2 sequence (looked up)
The assay is described as follows: ITC.

The target of assay [9] is ASAP1-SH3 (residue 1087–1147) (mouse) (UniProt Q9QWY8). The assay is described as follows: ITC; PEAQ-ITC; 400 μM in the syringe, 40 μM in the cell; 50 mM Tris pH 7.5, 100 mM NaCl, 1 mM DTT, 1 mM EDTA; one-site binding model.

Substitutions are numbered along the chain they refer to. In names and notes the source's numbering stands. Read-outs that look alike come from different tables or passages of the source.

The text below walks through data of publication PMC9865144, “Crystal Structure of the SH3 Domain of ASAP1 in Complex with the Proline Rich Motif (PRM) of MICAL1 Reveals a Unique SH3/PRM Interaction Mode” (International Journal of Molecular Sciences, 2023).

With ASAP1 SH3 (from UniProt Q9ULH1), the Kd with APC PRM (Homo sapiens) was 24 µM.

B1: FAK1-PRM (residue 710–724) (peptide, UniProt Q05397 710-724, looked up)
chain: EAPPKPSRPGYPSPR
notes: FAK1, human, proline rich motif, residue 710-724; also called PRM^Px+P from FAK1; source: E. coli BL21(DE3), purified (Ni-NTA, Superdex-200 gel filtration)
Consider B1, for which the binding result in assay [1], in [2] and in assay [3] was “binds” each time.
Molecule EPPPRPPRSCSALAR [MICAL1-PRM, Q8TDZ2 K832R] returned a Kd in [4] of 0.35 µM.

B2: MICAL1-loop3 (domain or fragment)
chain: AEGSDRGPESPELPTPSENSMPPGLSTPTASQEGAGPVPDPSQPTRRQIRLSSPERQRLSSLNLTPDPEMEPPPKPPRSCSALARHALESSFVGWGLPVQSPQALVAMEKEEKESPFSSEEEEEDVPLDSDVEQALQTFAKTSGTMNNYPTWRRTLLRRA
B2 registered a Kd in assay [5] of 1.1 µM.

B3: SKAP1_SH3 (protein)
chain: T3 sequence (looked up)
Regarding B3, the results for the dissociation constant Kd with FYB1, with FAK1 and with MICAL1 were 0.29 µM, 7.08 µM and 5.99 µM, respectively.

B4: ASAP1-SH3 (residue 1087–1147), Q9QWY8 D1099K (protein)
chain: T1 sequence (looked up) with D13K
As for B4, the dissociation constant (Kd) in the assay with MICAL1-PRM, Q8TDZ2 came out at 109 µM.

B5: ASAP1_SH3 (protein)
chain: T1 sequence (looked up)
Consider B5, for which the Kd in the assay with FYB1 turned out to be 7.59 µM; with FAK1 it was 1.97 µM; with MICAL1, 0.82 µM.

B6: ASAP1-SH3 (residue 1087–1147), Q9QWY8 C1096F (protein)
chain: T1 sequence (looked up) with C10F
Molecule B6 displayed a dissociation constant (Kd) with MICAL1-PRM, Q8TDZ2 of 15.7 µM.
For the molecule RPPNVDLTKFHKTSS [FYB1-PRM (residue 362–376)], the Kd is 0.29 µM in assay [6], 7.59 µM in assay [7] and 3.14 µM in assay [8].
In turn, EPPPPPPRSCSALAR [MICAL1-PRM, Q8TDZ2 K832P] had a Kd in [4] of 17 µM.

B7: GRAF2_SH3 (protein)
chain: T2 sequence (looked up)
On to B7, for which the Kd stood at 3.14 µM in the assay with FYB1, 6.06 µM with FAK1 and 1.33 µM in the assay with MICAL1.
Consider EPPPKPPRSCSALAR [MICAL1-PRM], for which the Kd in assay [5] was found to be 0.8 µM; in assay [9], 1 µM.
